In the supplement of paper PMC9112550, “Optimization of the antimicrobial peptide Bac7 by deep mutational scanning” (BMC Biology, 2022):

System: Escherichia coli TOP10
Assay: shrunken log2 fold change of peptide-encoding DNA abundance (4.5 h post-induction vs induction); higher = less antimicrobial activity (less host growth inhibition)
Conditions: time post-induction: 4.5 h; library: site-saturation at positions 5, 18, 19, 20
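Note: peptides expressed intracellularly from a pBAD plasmid library in pooled LB shake-flask culture, induced with 0.3% L-arabinose, DNA abundance read by NGS, three biological replicates, DESeq2 with apeglm shrinkage.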

RRIRPRPPRLPRPRPRPACMPRP
shrunken log2 fold change: 0.165

RRIRPRPPRLPRPRPRPACNPRP
shrunken log2 fold change: 0.00285

RRIRPRPPRLPRPRPRPADYPRP
shrunken log2 fold change: 0.0631

RRIRPRPPRLPRPRPRPAEFPRP
shrunken log2 fold change: -0.0142

RRIRPRPPRLPRPRPRPAENPRP
shrunken log2 fold change: -0.197

RRIRPRPPRLPRPRPRPAFCPRP
shrunken log2 fold change: 0.104

RRIRPRPPRLPRPRPRPAFEPRP
shrunken log2 fold change: 0.139

RRIRPRPPRLPRPRPRPAFNPRP
shrunken log2 fold change: -0.0727

RRIRPRPPRLPRPRPRPAFSPRP
shrunken log2 fold change: 0.117

RRIRPRPPRLPRPRPRPAGPPRP
shrunken log2 fold change: 0.314

RRIRPRPPRLPRPRPRPAGRPRP
shrunken log2 fold change: 0.395

RRIRPRPPRLPRPRPRPAGTPRP
shrunken log2 fold change: -0.07

RRIRPRPPRLPRPRPRPAHFPRP
shrunken log2 fold change: 0.111

RRIRPRPPRLPRPRPRPAHPPRP
shrunken log2 fold change: 0.273

RRIRPRPPRLPRPRPRPAHSPRP
shrunken log2 fold change: -0.00917

RRIRPRPPRLPRPRPRPAIDPRP
shrunken log2 fold change: 1.19

RRIRPRPPRLPRPRPRPAISPRP
shrunken log2 fold change: -0.103

RRIRPRPPRLPRPRPRPAKTPRP
shrunken log2 fold change: -0.168

RRIRPRPPRLPRPRPRPAKYPRP
shrunken log2 fold change: -0.317

RRIRPRPPRLPRPRPRPALSPRP
shrunken log2 fold change: 0.139

RRIRPRPPRLPRPRPRPANFPRP
shrunken log2 fold change: -0.0737

RRIRPRPPRLPRPRPRPAPEPRP
shrunken log2 fold change: 0.346

RRIRPRPPRLPRPRPRPAPKPRP
shrunken log2 fold change: 0.702

RRIRPRPPRLPRPRPRPAQVPRP
shrunken log2 fold change: -0.0714

RRIRPRPPRLPRPRPRPASIPRP
shrunken log2 fold change: -0.228

RRIRPRPPRLPRPRPRPATTPRP
shrunken log2 fold change: 0.0694

RRIRPRPPRLPRPRPRPAWVPRP
shrunken log2 fold change: 0.401

RRIRPRPPRLPRPRPRPAYQPRP
shrunken log2 fold change: -0.0181

RRIRPRPPRLPRPRPRPAYTPRP
shrunken log2 fold change: -0.116

RRIRPRPPRLPRPRPRPCAGPRP
shrunken log2 fold change: 0.122

RRIRPRPPRLPRPRPRPCAPPRP
shrunken log2 fold change: 0.159

RRIRPRPPRLPRPRPRPCCIPRP
shrunken log2 fold change: -0.269

RRIRPRPPRLPRPRPRPCDFPRP
shrunken log2 fold change: -0.179

RRIRPRPPRLPRPRPRPCDLPRP
shrunken log2 fold change: -0.428

RRIRPRPPRLPRPRPRPCEKPRP
shrunken log2 fold change: 0.0377

RRIRPRPPRLPRPRPRPCELPRP
shrunken log2 fold change: -0.17

RRIRPRPPRLPRPRPRPCEQPRP
shrunken log2 fold change: 0.102

RRIRPRPPRLPRPRPRPCFDPRP
shrunken log2 fold change: 0.0273

RRIRPRPPRLPRPRPRPCGYPRP
shrunken log2 fold change: -0.136

RRIRPRPPRLPRPRPRPCIKPRP
shrunken log2 fold change: -0.441

RRIRPRPPRLPRPRPRPCISPRP
shrunken log2 fold change: -0.0753

RRIRPRPPRLPRPRPRPCKGPRP
shrunken log2 fold change: -0.252

RRIRPRPPRLPRPRPRPCKIPRP
shrunken log2 fold change: -0.0494

RRIRPRPPRLPRPRPRPCLAPRP
shrunken log2 fold change: -0.109

RRIRPRPPRLPRPRPRPCMHPRP
shrunken log2 fold change: -0.297

RRIRPRPPRLPRPRPRPCMKPRP
shrunken log2 fold change: -0.0472

RRIRPRPPRLPRPRPRPCNPPRP
shrunken log2 fold change: -0.0662

RRIRPRPPRLPRPRPRPCPMPRP
shrunken log2 fold change: -0.156

RRIRPRPPRLPRPRPRPCPPPRP
shrunken log2 fold change: -0.0276

RRIRPRPPRLPRPRPRPCQGPRP
shrunken log2 fold change: 0.056

RRIRPRPPRLPRPRPRPCSQPRP
shrunken log2 fold change: -0.257

RRIRPRPPRLPRPRPRPCSTPRP
shrunken log2 fold change: -0.173

RRIRPRPPRLPRPRPRPCTIPRP
shrunken log2 fold change: -0.536

RRIRPRPPRLPRPRPRPCVRPRP
shrunken log2 fold change: 0.14

RRIRPRPPRLPRPRPRPCWGPRP
shrunken log2 fold change: -0.0769

RRIRPRPPRLPRPRPRPDAMPRP
shrunken log2 fold change: 0.319

RRIRPRPPRLPRPRPRPDANPRP
shrunken log2 fold change: 0.172

RRIRPRPPRLPRPRPRPDAQPRP
shrunken log2 fold change: 0.271

RRIRPRPPRLPRPRPRPDCFPRP
shrunken log2 fold change: 0.112

RRIRPRPPRLPRPRPRPDCVPRP
shrunken log2 fold change: -0.0187

RRIRPRPPRLPRPRPRPDDGPRP
shrunken log2 fold change: -0.21

RRIRPRPPRLPRPRPRPDDQPRP
shrunken log2 fold change: 0.0917

RRIRPRPPRLPRPRPRPDFVPRP
shrunken log2 fold change: -0.107

RRIRPRPPRLPRPRPRPDIEPRP
shrunken log2 fold change: -0.215

RRIRPRPPRLPRPRPRPDKAPRP
shrunken log2 fold change: 0.00631

RRIRPRPPRLPRPRPRPDKGPRP
shrunken log2 fold change: 0.118

RRIRPRPPRLPRPRPRPDKNPRP
shrunken log2 fold change: -0.308

RRIRPRPPRLPRPRPRPDKSPRP
shrunken log2 fold change: -0.442

RRIRPRPPRLPRPRPRPDLFPRP
shrunken log2 fold change: 0.0947

RRIRPRPPRLPRPRPRPDLVPRP
shrunken log2 fold change: -0.0293

RRIRPRPPRLPRPRPRPDMWPRP
shrunken log2 fold change: -0.103

RRIRPRPPRLPRPRPRPDNIPRP
shrunken log2 fold change: -0.406

RRIRPRPPRLPRPRPRPDNQPRP
shrunken log2 fold change: -0.357

RRIRPRPPRLPRPRPRPDNTPRP
shrunken log2 fold change: -0.373

RRIRPRPPRLPRPRPRPDPTPRP
shrunken log2 fold change: 0.166

RRIRPRPPRLPRPRPRPDQFPRP
shrunken log2 fold change: -0.0233

RRIRPRPPRLPRPRPRPDQIPRP
shrunken log2 fold change: -0.265

RRIRPRPPRLPRPRPRPDQPPRP
shrunken log2 fold change: -0.0572

RRIRPRPPRLPRPRPRPDRAPRP
shrunken log2 fold change: 0.622

RRIRPRPPRLPRPRPRPDSTPRP
shrunken log2 fold change: -0.679

RRIRPRPPRLPRPRPRPDTDPRP
shrunken log2 fold change: -0.158

RRIRPRPPRLPRPRPRPDTTPRP
shrunken log2 fold change: -0.156

RRIRPRPPRLPRPRPRPEAHPRP
shrunken log2 fold change: 0.0215

RRIRPRPPRLPRPRPRPECQPRP
shrunken log2 fold change: 0.126

RRIRPRPPRLPRPRPRPEDKPRP
shrunken log2 fold change: 0.163

RRIRPRPPRLPRPRPRPEEDPRP
shrunken log2 fold change: 0.192

RRIRPRPPRLPRPRPRPEFSPRP
shrunken log2 fold change: -0.0202

RRIRPRPPRLPRPRPRPEFTPRP
shrunken log2 fold change: 0.26

RRIRPRPPRLPRPRPRPEFWPRP
shrunken log2 fold change: 0.583

RRIRPRPPRLPRPRPRPEGFPRP
shrunken log2 fold change: 0.86

RRIRPRPPRLPRPRPRPEGHPRP
shrunken log2 fold change: -0.16

RRIRPRPPRLPRPRPRPEGRPRP
shrunken log2 fold change: 0.545

RRIRPRPPRLPRPRPRPEHRPRP
shrunken log2 fold change: 0.0967

RRIRPRPPRLPRPRPRPEHVPRP
shrunken log2 fold change: 0.0556

RRIRPRPPRLPRPRPRPEHWPRP
shrunken log2 fold change: 0.226

RRIRPRPPRLPRPRPRPEISPRP
shrunken log2 fold change: -0.00759

RRIRPRPPRLPRPRPRPEKEPRP
shrunken log2 fold change: -0.143

RRIRPRPPRLPRPRPRPEKWPRP
shrunken log2 fold change: 0.0413

RRIRPRPPRLPRPRPRPELQPRP
shrunken log2 fold change: 0.345

RRIRPRPPRLPRPRPRPENIPRP
shrunken log2 fold change: -0.102

RRIRPRPPRLPRPRPRPENKPRP
shrunken log2 fold change: -0.232

RRIRPRPPRLPRPRPRPENMPRP
shrunken log2 fold change: -0.395

RRIRPRPPRLPRPRPRPENSPRP
shrunken log2 fold change: -0.0155

RRIRPRPPRLPRPRPRPENYPRP
shrunken log2 fold change: -0.283

RRIRPRPPRLPRPRPRPEPNPRP
shrunken log2 fold change: 0.293

RRIRPRPPRLPRPRPRPEQMPRP
shrunken log2 fold change: 0.0974

RRIRPRPPRLPRPRPRPEQWPRP
shrunken log2 fold change: 0.0326

RRIRPRPPRLPRPRPRPERQPRP
shrunken log2 fold change: 0.153

RRIRPRPPRLPRPRPRPEVGPRP
shrunken log2 fold change: 0.353
